Source: publication PMC5828407 (2018)

B1: peptide F4ab 148–160 [modified: FITC-Ahx on the N-terminus; FITC-Ahx on the N-terminus] [Escherichia coli] / porcine aminopeptidase N (APN), His-tagged whole protein [porcine] (parent complex)
chain 1: NASYAGVFGKGGV
chain 2: MAKGFYISKALGILGILLGVAAVATIIALSVVYAQEKNKNAEHVPQAPTSPTITTTAAITLDQSKPWNRYRLPTTLLPDSYNVTLRPYLTPNADGLYIFKGKSIVRLLCQEPTDVIIIHSKKLNYTTQGHMVVLRGVGDSQVPEIDRTELVELTEYLVVHLKGSLQPGHMYEMESEFQGELADDLAGFYRSEYMEGNVKKVLATTQMQSTDARKSFPCFDEPAMKATFNITLIHPNNLTALSNMPPKGSSTPLAEDPNWSVTEFETTPVMSTYLLAYIVSEFQSVNETAQNGVLIRIWARPNAIAEGHGMYALNVTGPILNFFANHYNTSYPLPKSDQIALPDFNAGAMENWGLVTYRENALLFDPQSSSISNKERVVTVIAHELAHQWFGNLVTLAWWNDLWLNEGFASYVEYLGADHAEPTWNLKDLIVPGDVYRVMAVDALASSHPLTTPAEEVNTPAQISEMFDSISYSKGASVIRMLSNFLTEDLFKEGLASYLHAFAYQNTTYLDLWEHLQKAVDAQTSIRLPDTVRAIMDRWTLQMGFPVITVDTKTGNISQKHFLLDSESNVTRSSAFDYLWIVPISSIKNGVMQDHYWLRDVSQAQNDLFKTASDDWVLLNVNVTGYFQVNYDEDNWRMIQHQLQTNLSVIPVINRAQVIYDSFNLATAHMVPVTLALDNTLFLNGEKEYMPWQAALSSLSYFSLMFDRSEVYGPMKKYLRKQVEPLFQHFETLTKNWTERPENLMDQYSEINAISTACSNGLPQCENLAKTLFDQWMSDPENNPIHPNLRSTIYCNAIAQGGQDQWDFAWGQLQQAQLVNEADKLRSALACSNEVWLLNRYLGYTLNPDLIRKQDATSTINSIASNVIGQPLAWDFVQSNWKKLFQDYGGGSFSFSNLIQGVTRRFSSEFELQQLEQFKKNNMDVGFGSGTRALEQALEKTKANIKWVKENKEVVLNWFIEHS
B2: peptide F4ac 200–218 [modified: FITC-Ahx on the N-terminus; FITC-Ahx on the N-terminus] [Escherichia coli] / porcine aminopeptidase N (APN), His-tagged whole protein [porcine] (parent complex)
chain 1: TKLFGSLSRNDILGQIQRV
chain 2: B1 chain 2
B3: peptide F4ad 200–218 [modified: FITC-Ahx on the N-terminus; FITC-Ahx on the N-terminus] [Escherichia coli] / porcine aminopeptidase N (APN), His-tagged whole protein [porcine] (parent complex)
chain 1: ARTELFGSLSKNDILGQIQ
chain 2: B1 chain 2

Variants of: B1
Assay: ELISA; parent: 30; read off a plot

Variant	response
chain 1 G12A	~28 relative value APN/PBS at 450 nm

Variants of: B2
Assay: ELISA; parent: 29; read off a plot

Variant	response
chain 1 R18A	~6.5 relative value APN/PBS at 450 nm
chain 1 L13A	~13 relative value APN/PBS at 450 nm
chain 1 L3A	~73 relative value APN/PBS at 450 nm
chain 1 G5A	~20 relative value APN/PBS at 450 nm
chain 1 N10A	~15 relative value APN/PBS at 450 nm
chain 1 K2A	~48 relative value APN/PBS at 450 nm
chain 1 G14A	~6.5 relative value APN/PBS at 450 nm
chain 1 S8A	~27 relative value APN/PBS at 450 nm
chain 1 L7A	~6.5 relative value APN/PBS at 450 nm

Variants of: B3
Assay: ELISA; parent: 55; read off a plot

Variant	response
chain 1 A1E	~53 relative value APN/PBS at 450 nm
